Measured values published in US5846764, “Materials and methods relating to proteins that interact with casein kinase I” (ICOS Corporation, dated 1998).

Legend:
[1] = biological target: lexA::HRR25 K→R fusion (pBTM116::HRR25K→R) (E. coli; S. cerevisiae) (UniProt P0A7C2); assay: yeast two-hybrid (lexA bait, GAL4 prey), liquid β-galactosidase assay
[2] = biological target: lexA::HRR25 fusion (pBTM116::HRR25) (E. coli; S. cerevisiae) (UniProt P0A7C2); assay: as above
[3] = biological target: lexA::HRR25 non-catalytic domain fragment (pBTM116::Non-catalytic) (E. coli; S. cerevisiae) (UniProt P0A7C2); assay: as above
[4] = biological target: T1, lexA DNA binding domain alone (pBTM116 vector) (E. coli, UniProt P0A7C2); assay: yeast two-hybrid, liquid β-galactosidase assay
Description: To construct pairwise combinations between pBTM116-based plasmids and pGAD-based plasmids, yeast strains of opposite mating types were replica plated in a crossed pattern on YEPD medium (Bio101) and were allowed to mate for 18 hours. Diploid cells were selected by a second replica plating onto SD-leucine, -tryptophan medium to select for cells that contained both pBTM116-type and pGAD-type plasmids. The isolated diploids were grown in liquid SD-leucine, -tryptophan medium to a cell density of 2×10^7 cells/ml and the level of interaction of the kinase and interacting protein, as determined by beta-galactosidase activity, was determined from cells that were lysed by adding 3 drops of chloroform and 50 µl of 0.1 % SDS to 2×10^6 cells suspended in 0.1 ml of Z buffer and subsequently adding 0.2 ml of the chromogenic substrate o-nitrophenyl-β-D-galactoside. β-galactosidase assays were terminated by adding 0.5 ml of 1M Na_2CO_3 and activity was measured by reading absorbance at 420 nm using a Milton Roy spectrophotometer (Rochester, N.Y.). In this assay, the degree of protein/protein interaction is directly proportional to the level of β-galactosidase activity. […] Values were normalized to vector alone controls.

[5] = biological target: lexA::HRR25 K→R fusion (pBTM116::HRR25K→R) (E. coli; S. cerevisiae) (UniProt P0A7C2); assay: yeast two-hybrid (lexA bait, GAL4 activation domain prey), liquid β-galactosidase assay, normalized to vector alone
[6] = biological target: lexA::HRR25 catalytic domain fragment (pBTM116::Kinase domain) (E. coli; S. cerevisiae) (UniProt P0A7C2); assay: as above
lexA::HRR25 catalytic domain fragment (pBTM116::Kinase domain) (E. coli; S. cerevisiae), sequence (P0A7C2 1-202, tags or fused parts left off): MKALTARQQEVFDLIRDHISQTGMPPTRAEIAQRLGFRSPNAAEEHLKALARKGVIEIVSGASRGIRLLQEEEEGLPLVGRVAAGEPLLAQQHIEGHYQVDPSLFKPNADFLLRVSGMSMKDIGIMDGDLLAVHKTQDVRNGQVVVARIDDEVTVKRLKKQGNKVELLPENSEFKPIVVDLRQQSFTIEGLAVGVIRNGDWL

[7] = biological target: lexA::HRR25 fusion (pBTM116::HRR25) (E. coli; S. cerevisiae) (UniProt P0A7C2); assay: as above
[8] = biological target: lexA::HRR25 non-catalytic domain fragment (pBTM116::Non-catalytic) (E. coli; S. cerevisiae) (UniProt P0A7C2); assay: as above
[9] = biological target: lexA::NUF1 fusion (pBTM116::NUF1) (E. coli; S. cerevisiae) (UniProt P0A7C2); assay: as above
[10] = biological target: T1, lexA DNA binding domain alone (pBTM116 …); assay: as above
[11] = biological target: lexA::HRR25 non-catalytic domain fragment (pBTM116::Non-catalytic) (E. coli; S. cerevisiae, UniProt P0A7C2); assay: as above

Molecule	units of β-galactosidase activity [1] [units]	units of β-galactosidase activity [2] [units]	units of β-galactosidase activity [3] [units]	binding result [4]	relative β-galactosidase activity [5]	relative β-galactosidase activity [6]	relative β-galactosidase activity [7]	relative β-galactosidase activity [8]	relative β-galactosidase activity [9]	relative β-galactosidase activity [10]	relative β-galactosidase activity [11]
GAL4::KIP1 fusion (pGAD::KIP1) (from UniProt P28742)	55	16	70	–	–	–	–	–	–	–	–
GAL4::CIN8 fusion (pGAD::CIN8) (from UniProt P27895)	28	5	< 0.1	–	–	–	–	–	–	–	–
GAL4::KIP2 fusion (pGAD::KIP2) (from UniProt P28743)	16	10	< 0.1	–	–	–	–	–	–	–	–
GAL4::KAR3 fusion (pGAD::KAR3) (from UniProt P17119)	75	15	60	–	–	–	–	–	–	–	–
GAL4 activation domain::TIH3 library clone (pGAD::TIH3) (other) IKPMVESNCKNGQISATKDLVKLVEEFVEKYVELSKEKADTLKPLPSVTSFGSPRKVAAPELSMVQPESKPEAEAEISEIGSDRWRFNWVNIIILVLLVLNLLYLMKLNKKMDKLTNLMTHKDEVVAHATLLDIPAQVQWSRPRRGDVL	–	–	–	no binding (tested: <5)	30	130	100	< 5	10	< 5	–
GAL4 activation domain::TIH1 library clone (pGAD::TIH1) (other) DQLKSYAEEQLKLLLGITKEEQIDPGRELLNMLHTAVQANSNNNAVSNGQVPSSQELQHLKEQSGEHNQQKDQQSSFSSQQQPSIFPSLSEPFANNKNVIPPTMPMANVFMSNPQLFATMNGQPFAPFPFMLPLTNNSNSANPIPTPVPPNFNAPPNPMAFGVPNMHNLSGPAVSQPFSLPPAPLPRDSGYSSSSPGQLLDILNSKKPDSNVQSSKKPKLKILQRGTDLNSLKQNNNDETAHSNSQALLDLLKKPTSSQKIHASKPDTSFLPNDSVSGIQDAEYEDFESSSDEEVETARDERNSLNVDIGVNVMPSEKDSRRSQKEKPRNDASKTNLNASAESNSVEWGAG	–	–	–	no binding (tested: <5)	100	820	850	< 5	< 5	< 5	–
GAL4 activation domain::TIH2 library clone (pGAD::TIH2) (other) RSSSNLSLDSLSKMSGSGNNNTSNNQLFSTLMNGINANSMMNSPMNNTINNNSSNNNNSGNIILNQPSLSAQHTSSSLYQTNVNNQAQMSTERFYAPLPSTSTLPLPPQQLDFNDPDTLEIYSQLLLFKDREKYYYELAYPMGISASHKRIINVLCSYLGLVEVYDPRFIIIRRKILDHANLQSHLQQQGQMTSAHPLQPNSTGGSMNRSQSYTSLLQAHAAAAANSISNQAVNNSSNSNTINSNNGNGNNVIINNNSASSTPKISSQGQFSMQPTLTSPKMNIHHSSQYNSADQPQQPQPQTQQNVQSAAQQQQSFLRQQATLTPSSRIPSGYSANHYQINSVNPLLRNSQISPPNSQIPINSQTLSQAQPPAQSQTQQRVPVAYQNASLSSQQLYNLNGPSSANSQSQLLPQHTNGSVHSNFSYQSYHDESMLSAHNLNSADLIYKSLSHSGLDDGLEQGLNRSLSGLDLQNQNKKNLW	–	–	–	no binding (tested: <5)	150	160	650	–	< 5	< 5	< 5
GAL4 activation domain::TIH4 library clone (pGAD::TIH4) (protein) RRMISELKNRSNIGEPLTKSSNESTYKDIKATGNDGDPNLALMRAENRVLKYKLENCEKLLDKDVVDLQDSEIMEIVEMLPFEVGTLLETKFQGLESQIRQYRKYTQKLEDKIMALEKSGHTAMSLTGCDGTEVIELQKMLERKDKMIEALQSAKRLRDRALKPLINTQQSPHPVVDNDK	66	70	–	–	–	–	–	–	–	–	–
